In article PMC2172055 (The Journal of Cell Biology, 2004):

What was measured:
[1] = target: Sec61α (canine (endogenous in MDCK), UniProt P38377 1-476); experiment: FRET or BRET
[2] = target: Sec61β (canine (endogenous in MDCK), UniProt P60467 1-96); experiment: FRET or BRET
Sequence of Sec61β (P60467 whole entry): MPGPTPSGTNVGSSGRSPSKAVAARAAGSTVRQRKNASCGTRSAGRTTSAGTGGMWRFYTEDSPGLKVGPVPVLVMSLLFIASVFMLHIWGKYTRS

Sequence of Sec61α (P38377 whole entry): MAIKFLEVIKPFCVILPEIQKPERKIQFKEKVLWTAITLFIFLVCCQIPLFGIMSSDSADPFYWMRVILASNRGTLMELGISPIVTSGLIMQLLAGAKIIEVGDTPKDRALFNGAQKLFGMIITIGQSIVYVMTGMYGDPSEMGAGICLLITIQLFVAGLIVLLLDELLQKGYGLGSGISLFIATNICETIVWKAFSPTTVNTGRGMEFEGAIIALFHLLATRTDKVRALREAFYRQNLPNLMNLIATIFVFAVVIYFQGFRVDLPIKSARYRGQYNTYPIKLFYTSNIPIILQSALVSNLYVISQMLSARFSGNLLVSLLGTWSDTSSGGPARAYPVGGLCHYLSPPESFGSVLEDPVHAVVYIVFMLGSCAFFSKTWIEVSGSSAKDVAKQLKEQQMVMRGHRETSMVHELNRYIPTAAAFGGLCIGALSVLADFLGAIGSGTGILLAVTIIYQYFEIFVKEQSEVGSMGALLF

| FRET efficiency (pactamycin-treated cells) [1] [%] | FRET efficiency (puromycin-treated cells) [1] [%] | FRET efficiency (untreated cells) [1] [%] | FRET efficiency (pactamycin-treated cells) [2] [%] | FRET efficiency (puromycin-treated cells) [2] [%] | FRET efficiency (untreated cells) [2] [%] | Binder |
| --- | --- | --- | --- | --- | --- | --- |
| 32.2 | 31.6 | 34.1 | 18.8 | 17.2 | 16 | SRα (natural protein) MLDFFTIFSKGGLVLWCFQGVSDSCTGPVNALIRSVLLQERGGNNSFTHEALTLKYKLDNQFELVFVVGFQKILTLTYVDKLIDDVHRLFRDKYRTEIQQQSALSLLNGTFDFQNDFLRLLREREESSKIRAPTTMKKFEDSEKAKKPVRSMIETRGEKPKEKAKNSKKKGAKKESSDGPLATGKAVPAEKSGLPAGPENGVELSKEELIRRKREEFIQKHGRGLEKSSKSTKSDAPKEKGKKAPRVWALGGCANKEVLDYSAPTTNGAPDAAPPEDINLIRGTGPGGQLQDLDCSSSDDEETAQNASKPSATKGTLGGMFGMLKGLVGSKSLSREDMESVLDKMRDHLIAKNVAADIAVQLCESVANKLEGKVMGTFSTVTSTVKQALQESLVQILQPQRRVDMLRDIMDAQRHQRPYVVTFCGVNGVGKSTNLAKISFWLLENGFSVLIAACDTFRAGAVEHVRTHTRRLSALHPPEKHAGPTMVQLFEKGYGKDAAGIAMEAIAFARNQGFDVVLVDTAGRMQDNAPLMTALAKLITVNTPDLVLFVGEALVGNEAVDQLVKFNRALADHSMAQTPRLIDGIVLTKFDTIDDKVGAAISMTYITSKPIVFVGTGQTYCDLRSLNAKAVVAALMKA |
| 19.7 | 19.8 | 17.6 | 10.4 | 11.9 | 12.8 | TRAM (natural protein) MAIRKKSTKSPPVLSHEFILQNHADIVSCVAMVFLLGLMFEITAKASIIFVTLQYNVTLPATEEQATESTSLYYYGIKDLATVFFYMLVAIIIHAIIQEYVLDKINRRMHFSKTKHSKFNESGQLSAFYLFSCIWGTFILISENYISDPTILWRAYPHNLMTFQMKFFYIAQLAYWFHAFPELYFQKTKKEDIPRQLVYIGLYLFHIAGAYLLNLNHLGLVLLVLHYFVEFLFHISRLFYFSDEKYQKGFSLWAVLFVLGRLLTLILSVLTVGFGLARAENQKLDFSAGNFNVLAVRIAVLASICITQAFMMWKFINFQLRRWREHSTFQAPVVKKKPTVTKGRSSRKGTENGVNGTVTSNGADSPRNRKEKSS |
| 15.2 | 13.6 | 18.4 | 11.8 | 11.1 | 13.6 | TRAPα (natural protein) GPGGSLVAAQDLTEDEETVEDSIIEDEDDEAEVEEDEPTDLAEDKEEEDVSGEPEASPSADTTILFVKGEDFPANNIVKFLVGFTNKGTEDFIVESLDASFRYPQDYQFYIQNFTALPLNTVVPPQRQATFEYSFIPAEPMGGRPFGLVINLNYKDLNGNVFQDAVFNQTVTIIEREDGLDGETIFMYMFLAGLGLLVVVGLHQLLESRKRKRPIQKVEMGTSSQNDVDMSWIPQETLNQINKASPRRLPRKRAQKRSVGSDE |
